Assay results taken from patent US20220332804A1 (CSL INNOVATION, published 2022).
Positions count from the first letter of the chain named.

Key:
Experiment in all cases: SPR, antibody captured, C2 as analyte;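 also: biacore at 37 °C, anti-C2 mAbs held by immobilised goat anti-human IgG, C2 alanine or serine mutants injected, double-referenced sensorgrams fitted to a 1:1 kinetic or steady-state model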
human C2 G414A = target: T1, human C2 G414A (human, UniProt P06681 21-752)
T1 sequence: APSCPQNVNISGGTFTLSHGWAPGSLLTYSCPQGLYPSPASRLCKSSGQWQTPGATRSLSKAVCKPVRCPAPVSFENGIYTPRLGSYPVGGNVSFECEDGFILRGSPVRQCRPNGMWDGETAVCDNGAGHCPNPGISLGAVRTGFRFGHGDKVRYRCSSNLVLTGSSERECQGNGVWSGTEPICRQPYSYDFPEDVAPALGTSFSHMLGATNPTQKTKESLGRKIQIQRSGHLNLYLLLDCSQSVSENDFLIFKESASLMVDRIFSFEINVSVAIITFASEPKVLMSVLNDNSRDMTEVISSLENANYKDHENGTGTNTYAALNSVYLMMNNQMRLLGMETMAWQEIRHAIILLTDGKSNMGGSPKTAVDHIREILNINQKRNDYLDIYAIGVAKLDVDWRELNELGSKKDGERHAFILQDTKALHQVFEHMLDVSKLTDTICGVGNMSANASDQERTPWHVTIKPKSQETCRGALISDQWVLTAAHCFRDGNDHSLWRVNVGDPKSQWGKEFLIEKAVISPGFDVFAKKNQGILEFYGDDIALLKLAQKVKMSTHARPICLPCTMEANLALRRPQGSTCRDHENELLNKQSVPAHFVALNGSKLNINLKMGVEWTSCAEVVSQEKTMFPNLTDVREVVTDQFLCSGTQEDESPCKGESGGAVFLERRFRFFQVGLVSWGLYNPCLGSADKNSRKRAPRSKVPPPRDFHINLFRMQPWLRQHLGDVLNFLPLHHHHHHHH

human C2 W420A = target: T2, human C2 W420A (human, UniProt P06681 21-752)
T2 sequence: T1 sequence with A394G, W400A

human C2 K430A = target: T3, human C2 K430A (human, UniProt P06681 21-752)
T3 sequence: T1 sequence with A394G, K410A

human C2 F270A = target: T4, human C2 F270A (human, UniProt P06681 21-752)
T4 sequence: T1 sequence with F250A, A394G

B1: RF16-242 (antibody, human IgG4 S228P, lambda, V domains shown)
VH: EVQLLQSGAEVKKPGESLKISCKGSGYSFTSYWIGWVRQMPGKGLEWMGIIYPGDSDTRYSPSFQGQVTISADKSISTAYLQWSSLKASDTAMYYCARRGHYGDYFDYWGQGTLVTVSS
VL: SYELTQPPSVSVSPGQTARITCSGDALPKKYAYWYHQKSGQAPVLVIYEDRRRPSEIPERFSGSSSGTMATLTITGAQVEDEGVYFCYSRDRAGNQRVFGGGTQLTVLG
notes: pH-dependent anti-C2 antibody from a phage display library
Kd (human C2 G414A): 4.2 nM
Kd (human C2 W420A): 13.2 nM
Kd (human C2 K430A): 91 nM
Kd (human C2 F270A): 104 nM
